Experimental data as given in patent US20230235013A1 (MABSOLVE, published 2023).

T1: human FcγRIIA (R131, Sino Biological Cat. No. 10374-H08H) (human, UniProt P12318 34-218)
T1 construct: bought; also called human FcγRIIa R131 allele; FcγRII allele R131
T1 sequence (looked up): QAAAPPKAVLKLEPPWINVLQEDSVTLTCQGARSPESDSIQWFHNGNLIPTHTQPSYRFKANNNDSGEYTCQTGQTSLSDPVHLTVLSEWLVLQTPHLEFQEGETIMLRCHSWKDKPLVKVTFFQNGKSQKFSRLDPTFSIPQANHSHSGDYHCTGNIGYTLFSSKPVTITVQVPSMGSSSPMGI

T2: human FcγRIIB (Sino Biological Cat. No. 10259-H08H) (human, UniProt P31994 43-217)
T2 construct: bought
T2 sequence (looked up): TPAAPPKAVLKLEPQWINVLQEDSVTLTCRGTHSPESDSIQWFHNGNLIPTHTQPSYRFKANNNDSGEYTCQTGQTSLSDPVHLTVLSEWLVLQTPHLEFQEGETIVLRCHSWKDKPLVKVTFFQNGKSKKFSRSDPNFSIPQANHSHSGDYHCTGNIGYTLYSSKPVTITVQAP

T3: mouse FcγRI (Sino Biological Cat. No. 50086-M08H) (mouse, UniProt P26151 25-297)
T3 construct: bought
T3 sequence (looked up): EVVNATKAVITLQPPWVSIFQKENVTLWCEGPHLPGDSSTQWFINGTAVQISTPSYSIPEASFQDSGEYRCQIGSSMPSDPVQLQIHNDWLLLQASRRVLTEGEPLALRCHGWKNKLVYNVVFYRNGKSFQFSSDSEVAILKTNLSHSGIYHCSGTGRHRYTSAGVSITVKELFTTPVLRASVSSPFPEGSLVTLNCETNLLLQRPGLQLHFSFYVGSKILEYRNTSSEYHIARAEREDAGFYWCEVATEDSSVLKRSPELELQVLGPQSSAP


Columns and labels:
[1] = target: T4, Sheep Fc-CD52 fusion protein (Absolute Antibody Cat. No. PR00205) (human, UniProt P31358 25-36); assay: ELISA, antigen coated, antibody 5 µg/mL
T4 construct: bought; also called CD52 antigen; human CD52; not shown: sheep Fc

[2] = target: T5, CD3D/CD3E heterodimer (Sino Biologicals Cat. No. CT038-H2508H) (human, UniProt P04234 22-105; P07766 23-126); assay: ELISA, antigen coated, antibody 5 µg/mL
T5 construct: bought; also called CD3 antigen; human CD3

[3] = target: T1, human FcγRIIA (R131, Sino Biological …); assay: SPR, captured His-receptor
[4] = target: T2, human FcγRIIB (Sino Biological Cat. No. …); assay: SPR, captured His-receptor
[5] = target: T6, Histidine-tagged recombinant human FcγRI (CD64) (human, UniProt P12314 16-288); assay: SPR, captured His-receptor
T6 construct: bought; also called Sino Biological Cat. No. 12056-H08H

[6] = target: T7, human FcγRIIIB (NA2 allotype, Sino Biological Cat. No. 11046-H08H) (human, UniProt O75015 17-200); assay: SPR, captured His-receptor
T7 construct: bought; also called human FcγRIIIb NA2 allele

[7] = target: T3, mouse FcγRI (Sino Biological Cat. No. …); assay: SPR, captured His-receptor
[8] = target: human FcγRIIIa V158 allele (human, UniProt P08637 17-208, limits assumed); assay: SPR, captured His-receptor
[9] = target: T8, human FcγRIIIA (F158, Sino Biological Cat. No. 10389-H08H) (human, UniProt P08637 17-208); assay: SPR, captured His-receptor
T8 construct: bought; also called human FcγRIIIa F158 allele
T8 sequence (P08637 17-208 limits assumed): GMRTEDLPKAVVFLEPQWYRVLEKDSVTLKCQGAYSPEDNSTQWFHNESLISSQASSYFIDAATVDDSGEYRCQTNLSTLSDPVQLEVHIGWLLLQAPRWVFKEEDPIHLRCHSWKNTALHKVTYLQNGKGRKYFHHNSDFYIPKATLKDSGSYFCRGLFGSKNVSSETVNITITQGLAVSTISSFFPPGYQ

human FcγRIIIa V158 allele, sequence (P08637 17-208 F176V limits assumed): as the sequence (P08637 17-208 limits assumed) above, with F160V counted along it

Row | Binder | Mean Absorbance [1] [absorbance] | Mean Absorbance [2] [absorbance] | binding result [3] | binding result [4] | binding result [5] | binding result [6] | binding result [7] | binding result [8] | binding result [9]
1 | anti-CD3 (muromonab variable regions) human IgG1 wild type reference (antibody, also called 3-1; wild-type CD3 antibody) heavy: not shown light: QIVLTQSPAIMSASPGEKVTMTCSASSSVSYMNWYQQKSGTSPKRWIYDTSKLASGVPAHFRGSGSGTSYSLTISGMEAEDAATYYCQQWSSNPFTFGSGTKLEIKRTVAAPSVFIFPPSDEQLKSGTASVVCLLNNFYPREAKVQWKVDNALQSGNSQESVTEQDSKDSTYSLSSTLTLSKADYEKHKVYACEVTHQGLSSPVTKSFNRGEC | 0.006 | 1.01 |  |  |  |  |  |  | 
2 | anti-CD3 human IgG1 L234S/L235T/G236R (antibody, also called 3-52; copies: 2 + 2) heavy: not shown light: QIVLTQSPAIMSASPGEKVTMTCSASSSVSYMNWYQQKSGTSPKRWIYDTSKLASGVPAHFRGSGSGTSYSLTISGMEAEDAATYYCQQWSSNPFTFGSGTKLEIKRTVAAPSVFIFPPSDEQLKSGTASVVCLLNNFYPREAKVQWKVDNALQSGNSQESVTEQDSKDSTYSLSSTLTLSKADYEKHKVYACEVTHQGLSSPVTKSFNRGEC |  | 1.38 | no binding (tested: 100 µg/mL) | no binding (tested: 100 µg/mL) | no binding (tested: 100 µg/mL) | no binding (tested: 100 µg/mL) | no binding (tested: 100 µg/mL) |  | 
3 | anti-CD3 human IgG1 L234S/L235V/G236R (antibody, also called 3-53; copies: 2 + 2) heavy: not shown light: QIVLTQSPAIMSASPGEKVTMTCSASSSVSYMNWYQQKSGTSPKRWIYDTSKLASGVPAHFRGSGSGTSYSLTISGMEAEDAATYYCQQWSSNPFTFGSGTKLEIKRTVAAPSVFIFPPSDEQLKSGTASVVCLLNNFYPREAKVQWKVDNALQSGNSQESVTEQDSKDSTYSLSSTLTLSKADYEKHKVYACEVTHQGLSSPVTKSFNRGEC |  | 1.25 | no binding (tested: 100 µg/mL) | no binding (tested: 100 µg/mL) | no binding (tested: 100 µg/mL) | no binding (tested: 100 µg/mL) | no binding (tested: 100 µg/mL) |  | 
4 | anti-CD3 human IgG1 L234T/L235T/G236R (antibody, also called 3-63; copies: 2 + 2) heavy: not shown light: QIVLTQSPAIMSASPGEKVTMTCSASSSVSYMNWYQQKSGTSPKRWIYDTSKLASGVPAHFRGSGSGTSYSLTISGMEAEDAATYYCQQWSSNPFTFGSGTKLEIKRTVAAPSVFIFPPSDEQLKSGTASVVCLLNNFYPREAKVQWKVDNALQSGNSQESVTEQDSKDSTYSLSSTLTLSKADYEKHKVYACEVTHQGLSSPVTKSFNRGEC |  | 1.04 | no binding (tested: 100 µg/mL) | no binding (tested: 100 µg/mL) | no binding (tested: 100 µg/mL) | no binding (tested: 100 µg/mL) | no binding (tested: 100 µg/mL) |  | 
5 | anti-CD3 human IgG1 L234G/L235S/G236R (antibody, also called 3-19; copies: 2 + 2) heavy: not shown light: QIVLTQSPAIMSASPGEKVTMTCSASSSVSYMNWYQQKSGTSPKRWIYDTSKLASGVPAHFRGSGSGTSYSLTISGMEAEDAATYYCQQWSSNPFTFGSGTKLEIKRTVAAPSVFIFPPSDEQLKSGTASVVCLLNNFYPREAKVQWKVDNALQSGNSQESVTEQDSKDSTYSLSSTLTLSKADYEKHKVYACEVTHQGLSSPVTKSFNRGEC |  | 1.24 | no binding (tested: 100 µg/mL) | no binding (tested: 100 µg/mL) | no binding (tested: 100 µg/mL) | no binding (tested: 100 µg/mL) | no binding (tested: 100 µg/mL) |  | 
6 | anti-CD3 human IgG1 L234T/L235Q/G236R (antibody, also called 3-60; copies: 2 + 2) heavy: not shown light: QIVLTQSPAIMSASPGEKVTMTCSASSSVSYMNWYQQKSGTSPKRWIYDTSKLASGVPAHFRGSGSGTSYSLTISGMEAEDAATYYCQQWSSNPFTFGSGTKLEIKRTVAAPSVFIFPPSDEQLKSGTASVVCLLNNFYPREAKVQWKVDNALQSGNSQESVTEQDSKDSTYSLSSTLTLSKADYEKHKVYACEVTHQGLSSPVTKSFNRGEC |  | 1.33 | no binding (tested: 100 µg/mL) | no binding (tested: 100 µg/mL) | no binding (tested: 100 µg/mL) | no binding (tested: 100 µg/mL) | no binding (tested: 100 µg/mL) |  | 
7 | anti-CD3 human IgG1 L234A/L235A (LALA) (antibody, also called 3-65; copies: 2 + 2) heavy: not shown light: QIVLTQSPAIMSASPGEKVTMTCSASSSVSYMNWYQQKSGTSPKRWIYDTSKLASGVPAHFRGSGSGTSYSLTISGMEAEDAATYYCQQWSSNPFTFGSGTKLEIKRTVAAPSVFIFPPSDEQLKSGTASVVCLLNNFYPREAKVQWKVDNALQSGNSQESVTEQDSKDSTYSLSSTLTLSKADYEKHKVYACEVTHQGLSSPVTKSFNRGEC |  | 1.07 | binds |  | binds |  |  |  | 
8 | anti-CD3 human IgG1 N297Q (aglycosyl) (antibody, also called 3-67; copies: 2 + 2) heavy: not shown light: QIVLTQSPAIMSASPGEKVTMTCSASSSVSYMNWYQQKSGTSPKRWIYDTSKLASGVPAHFRGSGSGTSYSLTISGMEAEDAATYYCQQWSSNPFTFGSGTKLEIKRTVAAPSVFIFPPSDEQLKSGTASVVCLLNNFYPREAKVQWKVDNALQSGNSQESVTEQDSKDSTYSLSSTLTLSKADYEKHKVYACEVTHQGLSSPVTKSFNRGEC |  | 0.749 |  |  | binds |  | binds |  | 
9 | anti-CD52 human IgG1 L234S/L235T/G236R (antibody, also called 4-52; copies: 2 + 2) heavy: QVQLQESGPGLVRPSQTLSLTCTVSGFTFTDFYMNWVRQPPGRGLEWIGFIRDKAKGYTTEYNPSVKGRVTMLVDTSKNQFSLRLSSVTAADTAVYYCAREGHTAAPFDYWGQGSLVTVSSASTKGPSVFPLAPSSKSTSGGTAALGCLVKDYFPEPVTVSWNSGALTSGVHTFPAVLQSSGLYSLSSVVTVPSSSLGTQTYICNVNHKPSNTKVDKKVEPKSCDKTHTCPPCPAPESTRGPSVFLFPPKPKDTLMISRTPEVTCVVVDVSHEDPEVKFNWYVDGVEVHNAKTKPREEQYNSTYRVVSVLTVLHQDWLNGKEYKCKVSNKALPAPIEKTISKAKGQPREPQVYTLPPSRDELTKNQVSLTCLVKGFYPSDIAVEWESNGQPENNYKTTPPVLDSDGSFFLYSKLTVDKSRWQQGNVFSCSVMHEALHNHYTQKSLSLSPGK light: not shown | 1.44 |  | no binding (tested: 100 µg/mL) | no binding (tested: 100 µg/mL) | no binding (tested: 100 µg/mL) | no binding (tested: 100 µg/mL) | no binding (tested: 100 µg/mL) | no binding (tested: 100 µg/mL) | no binding (tested: 100 µg/mL)
10 | anti-CD52 human IgG1 L234G/L235S/G236R (antibody, also called 4-19; copies: 2 + 2) heavy: QVQLQESGPGLVRPSQTLSLTCTVSGFTFTDFYMNWVRQPPGRGLEWIGFIRDKAKGYTTEYNPSVKGRVTMLVDTSKNQFSLRLSSVTAADTAVYYCAREGHTAAPFDYWGQGSLVTVSSASTKGPSVFPLAPSSKSTSGGTAALGCLVKDYFPEPVTVSWNSGALTSGVHTFPAVLQSSGLYSLSSVVTVPSSSLGTQTYICNVNHKPSNTKVDKKVEPKSCDKTHTCPPCPAPEGSRGPSVFLFPPKPKDTLMISRTPEVTCVVVDVSHEDPEVKFNWYVDGVEVHNAKTKPREEQYNSTYRVVSVLTVLHQDWLNGKEYKCKVSNKALPAPIEKTISKAKGQPREPQVYTLPPSRDELTKNQVSLTCLVKGFYPSDIAVEWESNGQPENNYKTTPPVLDSDGSFFLYSKLTVDKSRWQQGNVFSCSVMHEALHNHYTQKSLSLSPGK light: not shown | 1.13 |  | no binding (tested: 100 µg/mL) | no binding (tested: 100 µg/mL) | no binding (tested: 100 µg/mL) | no binding (tested: 100 µg/mL) | no binding (tested: 100 µg/mL) | no binding (tested: 100 µg/mL) | no binding (tested: 100 µg/mL)
